Experimental data: paper PMC9964314

Columns and labels:
[1] = target: FITC tagged AAV Po1 capsid bipartite NLS peptide (residues 119-158) (porcine adeno-associated virus, strain Po1); experiment: fluorescence polarisation
[2] = target: FITC tagged AAV Po1 capsid monopartite NLS peptide (residues 143-165) (porcine adeno-associated virus, strain Po1); experiment: fluorescence polarisation

Substance	Kd [1]	Kd [2]
Human importin α5 lacking the IBB domain (hImp5DIBB) (domain or fragment)	0.14 nM	144 nM
Human importin α1 lacking the IBB domain (hImpα1DIBB) (domain or fragment)	0.382 nM	556 nM
Human importin α7 lacking the IBB domain (hImpα7DIBB) (domain or fragment)	0.29 nM	294 nM
Human importin α3 lacking the IBB domain (hImpα3DIBB) (domain or fragment)	0.0455 nM	3480 nM
